Data taken from US20120225065A1.

Biological target: Human IL-21 receptor on Baf3/KZ134/huIL-21R cells (human) (UniProt Q9HBE5)
Assay: cell-based or functional assay

Human IL-21 receptor on Baf3/KZ134/huIL-21R cells (human), sequence (Q9HBE5 20-538): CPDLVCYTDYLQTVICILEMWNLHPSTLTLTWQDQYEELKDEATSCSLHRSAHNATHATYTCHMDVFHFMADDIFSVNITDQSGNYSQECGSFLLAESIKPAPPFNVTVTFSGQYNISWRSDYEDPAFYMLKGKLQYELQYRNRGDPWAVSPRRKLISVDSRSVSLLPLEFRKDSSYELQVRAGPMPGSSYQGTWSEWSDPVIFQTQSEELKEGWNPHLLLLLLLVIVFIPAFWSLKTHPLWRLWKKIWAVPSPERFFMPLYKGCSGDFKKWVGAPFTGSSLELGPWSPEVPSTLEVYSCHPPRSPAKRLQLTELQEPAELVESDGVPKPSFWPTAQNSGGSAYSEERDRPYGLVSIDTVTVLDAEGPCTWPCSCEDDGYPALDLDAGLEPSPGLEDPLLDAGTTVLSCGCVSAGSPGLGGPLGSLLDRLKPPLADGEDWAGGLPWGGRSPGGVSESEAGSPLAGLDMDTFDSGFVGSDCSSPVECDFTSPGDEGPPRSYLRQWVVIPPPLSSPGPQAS

EC90 in STAT-Luciferase assay: 1.08 nM
Substance: Recombinant rat IL-21 (from UniProt A3QPB9 18-146) (ligand)
